# Experimental data taken from publication PMC5095173, “Disulfide-activated protein kinase G Iα regulates cardiac diastolic relaxation and fine-tunes the Frank–Starling response” (Nature Communications, 2016).
# Where no end group is shown, it is not given here.
# B1: oxidized (WT) protein kinase G Iα, Cys42 disulfide dimer (enzyme, human, UniProt Q13976 1-671, looked up)
# chain: MSELEEDFAKILMLKEERIKELEKRLSEKEEEIQELKRKLHKCQSVLPVPSTHIGPRTTRAQGISAEPQTYRSFHDLRQAFRKFTKSERSKDLIKEAILDNDFMKNLELSQIQEIVDCMYPVEYGKDSCIIKEGDVGSLVYVMEDGKVEVTKEGVKLCTMGPGKVFGELAILYNCTRTATVKTLVNVKLWAIDRQCFQTIMMRTGLIKHTEYMEFLKSVPTFQSLPEEILSKLADVLEETHYENGEYIIRQGARGDTFFIISKGTVNVTREDSPSEDPVFLRTLGKGDWFGEKALQGEDVRTANVIAAEAVTCLVIDRDSFKHLIGGLDDVSNKAYEDAEAKAKYEAEAAFFANLKLSDFNIIDTLGVGGFGRVELVQLKSEESKTFAMKILKKRHIVDTRQQEHIRSEKQIMQGAHSDFIVRLYRTFKDSKYLYMLMEACLGGELWTILRDRGSFEDSTTRFYTACVVEAFAYLHSKGIIYRDLKPENLILDHRGYAKLVDFGFAKKIGFGKKTWTFCGTPEYVAPEIILNKGHDISADYWSLGILMYELLTGSPPFSGPDPMKTYNIILRGIDMIEFPKKIAKNAANLIKKLCRDNPSERLGNLKNGVKDIQKHKWFEGFNWEGLRKGTLTPPIIPSVASPTDTSNFDSFPEDNDEPPPDDNSGWDIDF
# modifications: intermolecular disulfide bond at Cys42 between the two subunits
# notes: protein kinase G Iα (cGMP-dependent protein kinase 1, alpha isoform), human, untagged WT construct; also called PKGIα; source: FreeStyle 293-F cells, transfected, purified (8-AEA-cAMP agarose, size exclusion chromatography); incubated with 10 mM lipoic acid to obtain the disulfide dimer
# Key:
# [1] = molecular target: B1; assay: ITC; PLN (1–23) (700 μM) titrated into the cell containing WT disulfide PKGIα or the C42S mutant (70 μM); 25 °C; 50 mM sodium phosphate buffer pH 7.4, 100 mM NaCl; no cyclic nucleotide; details: both partners purified
# [2] = molecular target: the molecule itself; assay: cross-linking; intermolecular Cys42 disulfide of purified recombinant PKGIα (lipoic acid or air oxidation) seen as dimer by SDS-PAGE
Binder,Kd [1],stoichiometry N [1],stoichiometry N [2]
"Ac-MEKVQYLTRSAIRRASTIEMPQQ (peptide, UniProt P26678 1-23, looked up, cardiac phospholamban, human, residues 1-23 (N-terminal cytoplasmic domain); also called PLN_(1–23); PLN (1–23); source: synthetic peptide; bought: PeptideSynthetics (Peptide Protein Research Ltd, UK))",~7 µM,1 PLN peptide per PKGIα disulfide dimer,–
B1,–,–,2
